Data from patent US20180021429A1, “ANTICANCER AGENTS OR ANTIMETASTATIC AGENTS USING FSTL1 AND COMBINATION DRUG THEREOF” (PHARMA FOODS INTERNATIONAL CO., LTD., priority 2015, published 2018).
“Also recorded” adds a separate entry of the source.

Assays:
[1] = system: induction of MSCs, cancer-associated MSCs, and M-MDSCs by FSTL1; assay: Inhibitory activity against induction of MSC, cancer-associated MSC and MDSC by FSTL1 (Examples 13-15); format: cell-based, mouse
Description: Mouse bone marrow cells prepared in the same way as in Example 4 were supplemented with 20 ng/mL (final concentration) of FSTL1 and 10 μg/mL of the anti-FSTL1 antibody (#6-55, #7-34, #8-1, or #8-4), an anti-PD-L1 antibody reported to have an immunosuppression-mitigating effect, or a control antibody anti-DNP antibody and cultured under stimulation. 8 days thereafter, the number of cells was counted while the cells were stained with a PE-Cy5-labeled anti-CD45 antibody, a PE-labeled anti-ALCAM antibody, a FITC-labeled anti-CD271 antibody (Abcam plc, Cat. No. AB62122), a FITC-labeled anti-CD11b antibody (BD Pharmingen/Becton, Dickinson and Company, Cat. No. 553310), and a PE-Cy5-labeled anti-Gr1 antibody (eBioscience, Cat. No. 15-5931) in order to detect MSCs (CD45-negative cells), cancer-associated MSCs (CD45-negative, ALCAM-positive, and CD271-positive cells) which are MSCs increasing in number in association with cancer metastasis, and monocytic myeloid-derived suppressor cells (M-MDSCs: CD11b-positive, Gr1-positive, and ALCAM-positive cells) increasing in number together with cancer-associated MSCs, and the contents of the cells mentioned above were analyzed by flow cytometry using FACScan to calculate the percentage and number of MSCs per culture (FIG. 8). […] PD-L1 is expressed in MSC and presumably influences the induction of MSCs.
The antibody clone (#6-55, #7, #10, #13, or […]) was evaluated for its activity by the same testing method as in Example 13. #6-55 was set as a positive control for activity. […] Mouse bone marrow cells were supplemented with FSTL1 and the predetermined concentration of each antibody and cultured for 8 days. 5×10^4 cells/well were separated from each culture system and evaluated for the ability to differentiate into adipocytes using an adipocyte differentiation reagent included in “Mesenchymal Stem Cell Functional Identification Kit (R&D Systems, Inc., Cat. No. SC010)”. For the evaluation method, the cells were supplemented with the adipocyte differentiation reagent and cultured for 8 days. Then, adipocytes per culture system were counted under a microscope for evaluation. In the graph, none is depicted in the leftmost bar, and the control antibody is depicted in the second bar from the left followed by the anti-FSLT1 antibody clones. […]
Mouse bone marrow cells (bone marrow cells prepared in the same way as in Example 4) were supplemented with 20 ng/mL (final concentration) of FSTL1 and 20.0, 10.0, 5.0, or 2.5 μg/ml (final concentration) of the rat anti-FSTL1 antibody or #6-55. […] The cells were cultured for 8 days, and the inhibitory activity of each antibody against the induction of MSCs, cancer-associated MSCs, and M-MDSCs by FSTL1 was evaluated in the same way as in Example 13 (FIG. 10A). […]

[2] = target: T1, FSTL1 (Homo sapiens, UniProt Q12841); assay: Inhibition of MSC induction by FSTL1 in mouse bone marrow cells, ALCAM- and PDGFRA-positive cells (Example 4); format: cell-based; design: purchased R&D Systems, Inc. 1694-FN-050; details: FSTL1 50 ng/mL, antibody 10 μg/mL, 11 days, vs control anti-DNP antibody
T1 sequence (Q12841 21-308): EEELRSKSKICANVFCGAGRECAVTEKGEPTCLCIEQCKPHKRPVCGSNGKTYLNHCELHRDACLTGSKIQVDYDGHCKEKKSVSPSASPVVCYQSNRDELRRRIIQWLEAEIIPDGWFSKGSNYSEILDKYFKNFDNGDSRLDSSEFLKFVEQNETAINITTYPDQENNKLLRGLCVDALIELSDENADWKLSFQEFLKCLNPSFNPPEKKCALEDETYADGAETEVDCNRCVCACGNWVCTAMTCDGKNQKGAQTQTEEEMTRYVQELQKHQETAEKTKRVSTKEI
Description: It is known that when bone marrow cells are stimulated with FSTL1, mesenchymal stem cells (MSCs) having pluripotency or self-proliferative capacity grow (Cancer Research 73: 6185, 2013). Thus, 2×10^7 cells/well of bone marrow cells collected from the thigh bone of a C57BL/6 mouse were suspended in 3 mL/well of RPMI1640 (GIBCO/Thermo Fisher Scientific Inc., Cat. No. C11875500BT) medium containing 2% fetal bovine serum, supplemented with 50 ng/mL (final concentration) of FSTL1 (R&D Systems, Inc. Cat#1694-FN-050) and 10 μg/mL of the anti-FSTL1 antibody (#5-2, #5-3, #5-8, #5-10, #5-43, #6-55, or #7-34) or its isotype mouse IgG (anti-DNP antibody) as a control antibody “Control”, and cultured under stimulation (6-well plate). 11 days thereafter, the number of cells was counted while the cells were stained with a PE-labeled anti-ALCAM antibody (eBioscience, Cat. No. 12-1661-82) and a PE-labeled anti-PDGFRA antibody (eBioscience, Cat#12-1401-81) in order to examine the expression of MSC markers, and the contents of ALCAM-positive cells and PDGFR-positive cells were analyzed by flow cytometry using FACScan (Becton, Dickinson and Company, Code. BECTON-DICKINSON-FACSCAN) to calculate the number of each positive cell per culture.

[3] = Example 14, FIG. 9A/39A, #6-55 as positive control

B1: #33: chicken-mouse chimeric anti-FSTL1 antibody clone; variable regions SEQ ID NO: 823 (light), 825 (heavy) (antibody, V domains shown)
VH: AVTLDESGGGLQTPGGGLSLVCKASGFTFSSFNMNWVRQAPGKGLEYVAEISGTGSSTYYGSAVKGRATISRDNGQSTVRLQLNNLRAEDTATYFCARGDGAYSIDAWGHGTEVIVSS
VL: ASTQPSSVSANPGETVEITCSGDSSYYGWFQQKSPGSAPVTVIYDNTNRPSDIPSRFSGSKSGSTATLTITGVRAEDEAVYYCGGYDSSTYDGIFGAGTTLTVL
modifications: mouse constant regions
inhibitory activity against the induction of MSCs, cancer-associated MSCs, and M-MDSCs by FSTL1 [1, 3]: inhibitory activity equivalent to or higher than that of the positive control (#6-55); also recorded: inhibitory activity equivalent to or higher than that of the positive control (16-55)

B2: #13: chicken-mouse chimeric anti-FSTL1 antibody clone; variable regions SEQ ID NO: 815 (light), 817 (heavy) (antibody, V domains shown)
VH: AVTLDESGGGLQTPGGGLSLVCKASGFTFSSVTMQWVRQAPGKGLEWVASICSGSSTYYGPAVKGRATISRDNGQNTVRLQLNNLRAEDTATYYCAKIVGRGRWSCTSAAYNIDAWGHGTEVIVSS
VL: ASTQPSSVSANPGETVKITCSGGGNNYGWYQQKSPGSAPVTVIYNNNNRPSNIPSRFSGSKSGSTNTLTITGVQAEDEAVYYCGSYDSSSDSGIFGAGTTLTVL
modifications: mouse constant regions
inhibitory activity against the induction of MSCs, cancer-associated MSCs, and M-MDSCs by FSTL1 [1, 3]: inhibitory activity equivalent to or higher than that of the positive control (#6-55); also recorded: inhibitory activity equivalent to or higher than that of the positive control (16-55)

B3: #5-43: chicken-mouse chimeric anti-FSTL1 antibody clone; variable regions SEQ ID NO: 779 (light), 781 (heavy) (antibody, V domains shown)
VH: AVTLDESGGGLQTPGGGLSLVCKGSGFTFSSFNMFWVRQAPGKGLEWVAGIGKDGGTGYGAAVDGRATISKDSGQSTLRLQLNNLRAEDTGTYYCAKAAGGCSYDWCGAYTGDIDTWGHGTEVIVSS
VL: ASTQPSSVSANPGEAVKITCSGGSGSYYGWYQQKSPGSAPVTVIYNNNQRPSDIPSRFSGSKSGSTATLTITGVQAEDEAVYFCGGYDSSTGHGGIFGAGTTLTVL
modifications: mouse constant regions
inhibitory activity against the expansion of ALCAM-positive cells and PDGFRA-positive cells by FSTL1 [2]: slightly strong tendency of inhibitory activity

B4: #6-55: chicken-mouse chimeric anti-FSTL1 antibody clone; variable regions SEQ ID NO: 783 (light), 785 (heavy) (antibody, V domains shown)
VH: AVTLDESGGGLQTPGGALSLVCKGSGFTFTSVTMQWVRQAPGKGLEWVASVCSGSSTYYAPAVKGRATISRDNGQSTVRLQLSNLRPEDTGTYYCAKIAGRARWSCTSAAYNIDAWGHGTEVIVSS
VL: ASTQPSSVSAIPGETVKITCSGGGNNYGWYQQRSPGSAPVTVIYYNDNRPSNIPSRFSGSTSGSTSTLTITGVQADDEAIYYCGSWDSNTDSGIFGAGTTLTVL
modifications: mouse constant regions
dose dependence ([1]; Example 15, FIG. 10A/40A, 2.5-20.0 μg/ml): No dose-dependent effect was confirmed; also recorded: dose dependence was not confirmed | inhibitory activity against the induction of MSCs, cancer-associated MSCs, and M-MDSCs by FSTL1 ([1]; Example 15, FIG. 10A/40A, FSTL1 20 ng/mL, antibody 20.0, 10.0, 5.0, 2.5 μg/ml, 8 days): slightly superior; also recorded: at the same level | inhibitory activity against the expansion of ALCAM-positive cells and PDGFRA-positive cells by FSTL1 [2]: slightly strong tendency of inhibitory activity

B5: #7-34: chicken-mouse chimeric anti-FSTL1 antibody clone; variable regions SEQ ID NO: 787 (light), 789 (heavy) (antibody, V domains shown)
VH: AVTLDESGGGLQTPGGGLSLVCKASGFTFSSVTMQWVRQAPGKGLEWVASICSGSSTYYGPAVKGRATISRDNGQNTVRLQLNNLRAEDTATYYCAKIVGRGRWSCTSAAYNIDAWGHGTEVIVSS
VL: ASTQPSSVSANPGETVKITCSGGGNNYGWYQQKSPGSAPVTVIYYNNNRPSNIPSRFSGSTSGSTSTLTITGVQAEDEAVYYCGSYEGSTDSGIFGAGTTLTVL
modifications: mouse constant regions
inhibitory activity against the expansion of ALCAM-positive cells and PDGFRA-positive cells by FSTL1 [2]: slightly strong tendency of inhibitory activity
